Assays:
[1] = biological target: GWS1B form II RubisCO (CbbM) from an uncultivated Gallionellaceae species (uncultivated Gallionellaceae sp. (groundwater aquifer metagenome)); experiment: SEC
[2] = biological target: GWS1B form II RubisCO (CbbM) from an uncultivated Gallionellaceae species (uncultivated Gallionellaceae sp. (groundwater aquifer metagenome)); experiment: crystal structure
[3] = biological target: GWS1B form II RubisCO (CbbM) from an uncultivated Gallionellaceae species (uncultivated Gallionellaceae sp. (groundwater aquifer metagenome)); experiment: SEC-MALS

stoichiometry N [1]: 6
stoichiometry N [2]: 6
stoichiometry N [3]: 6
Substance: GWS1B form II RubisCO (CbbM) from an uncultivated Gallionellaceae species (enzyme)

Source: publication PMC10035430
